Assay results from patent US20230242662A1 (BIOATLA, published 2023).

T1: huCD46-His (human, UniProt P15529 35-343)
T1 construct: extracellular domain; Immobilised by amine coupling on the SPR chip; It may be the same protein as the ELISA antigen; also called Human CD46-His; human CD46; not shown: His tag
T1 sequence (looked up): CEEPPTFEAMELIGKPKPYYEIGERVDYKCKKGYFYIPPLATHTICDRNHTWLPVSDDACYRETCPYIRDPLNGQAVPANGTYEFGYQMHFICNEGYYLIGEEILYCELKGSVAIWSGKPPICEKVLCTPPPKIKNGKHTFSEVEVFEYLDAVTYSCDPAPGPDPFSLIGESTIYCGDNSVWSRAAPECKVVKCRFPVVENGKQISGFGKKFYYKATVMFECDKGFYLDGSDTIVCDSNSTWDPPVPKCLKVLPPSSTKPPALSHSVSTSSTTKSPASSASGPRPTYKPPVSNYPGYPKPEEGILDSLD

T2: recombinant cyno CD46 antigen (cynomolgus, UniProt A0A2K5WCL8 35-328)
T2 construct: extracellular domain; Plate-coated antigen of the ELISA; also called cynomolgus CD46 extracellular domain
T2 sequence: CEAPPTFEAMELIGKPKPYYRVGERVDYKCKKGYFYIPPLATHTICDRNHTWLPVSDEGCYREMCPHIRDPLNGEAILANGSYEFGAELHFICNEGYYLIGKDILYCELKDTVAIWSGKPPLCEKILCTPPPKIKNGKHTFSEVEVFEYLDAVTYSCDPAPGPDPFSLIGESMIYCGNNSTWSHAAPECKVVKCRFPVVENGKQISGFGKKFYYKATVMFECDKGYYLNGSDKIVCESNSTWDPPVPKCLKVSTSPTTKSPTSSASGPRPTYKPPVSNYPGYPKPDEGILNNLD

T3: cynoCD46-His (cynomolgus, UniProt A0A2K5WCL8 35-328)
T3 construct: extracellular domain; Immobilised by amine coupling on the SPR chip; not shown: His tag
T3 sequence: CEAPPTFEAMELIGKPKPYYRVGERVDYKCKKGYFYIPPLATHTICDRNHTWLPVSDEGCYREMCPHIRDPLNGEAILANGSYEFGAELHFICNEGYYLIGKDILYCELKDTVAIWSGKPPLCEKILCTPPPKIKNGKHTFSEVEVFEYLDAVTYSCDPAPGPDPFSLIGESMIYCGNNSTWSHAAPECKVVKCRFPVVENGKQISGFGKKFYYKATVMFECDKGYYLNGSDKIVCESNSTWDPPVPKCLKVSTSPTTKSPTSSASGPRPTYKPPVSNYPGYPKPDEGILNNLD


Experiments:
huCD46-His [1] = biological target: T1, huCD46-His; test: SPR, huCD46-His immobilised, antibody as analyte, pH 6.0
Description: (§1) Binding kinetics of anti-CD46 antibodies were measured by surface plasmon resonance on a SPR2/4 instrument (Sierra Sensors, Hamburg, Germany) and flat amine sensor chips. The SPR sensor contained four flow cells (FC1-FC4), each of which can be addressed individually or in groups. huCD46-His was immobilized in FC2, and cynoCD46-His was immobilized in FC4. No protein was immobilized in FC1 and FC3 which were used as control surfaces for FC2 and FC4, respectively.
(§2) All injections were done at a flow rate of 25 μL/min and 25° C. The sensor surface was activated with 1-ethyl-3-(3-dimethylaminopropyl)-carbodiimide (EDC) and N-hydroxysuccinimide (NHS) (200 mM/50 mM) for 480 seconds. Human CD46-His (2 μg/mL in 10 mM NaAc, pH5.0) was injected for 480s and the surface was inactivated by injecting 1M ethanolamine-HCl for 480s. cynoCD46-His was immobilized using the same conditions as described for huCD46-His, except that it was diluted into 10 mM NaAc buffer pH4.5. The control surface was activated and deactivated using the same conditions, but without injecting protein. PBST buffer (PBS pH7.4 with 0.05% TWEEN20™) was used as running buffer for the surface preparation. The running solution was switched to PBST with 30 mM sodium bicarbonate with the pH adjusted as indicated in the figures before the analyte injections. The instrument was equilibrated with the running solution for one hour before the first analyte injection.
(§3) The off-rate was measured for 360 s. The chip surface was regenerated after each cycle of interaction by injecting 6 μL of 10 mM glycine (pH 2.0). Flow cells 1 and 3 without immobilized protein were used as control surfaces for reference subtraction.

huCD46-His [2] = biological target: T1, huCD46-His; test: SPR, huCD46-His immobilised, antibody as analyte, pH 6.5
Description: as §1, §2, §3

[3] = biological target: T4, cyno CD46 expressed on 293 cells (cynomolgus); test: FACS, 293 cells expressing cyno CD46; EC50 at pH 7.4 over EC50 at pH 6.0
T4 construct: whole, on cells; The construct on the cells is not described; also called HEK 293 cells expressing cyno CD46
Description: (§4) A similar FACS analysis was also carried out using 293 cells expressing cyno CD46. […] The EC50 values for binding to the 293 cells expressing cyno CD46 by the conditionally active anti-CD46 antibodies are summarized in Table 6.

[4] = biological target: T2, recombinant cyno CD46 antigen; test: ELISA, coated cyno CD46; EC50 at pH 7.4 over EC50 at pH 6.0
Description: The binding activities of conditionally active anti-CD46 antibodies to cyno CD46 were measured by ELISA and are shown in FIGS. 3-4. The EC50 values for binding to the cyno CD46 at pH 6.0 and pH 7.4 for the conditionally active anti-CD46 antibodies are summarized in Table 2.
[…] Cover with sealing film and place the plate onto a plate shaker set to 50 rpm for 60 minutes at room temperature. [0351] 6) Decant plates and tap out residual liquid on a stack of paper towels. [0352] 7) Serially dilute test articles in 3-fold dilutions starting at 3000 ng/mL in pH 6.0 or pH 7.4 ELISA incubation buffer. [0353] 8) Add 100 μL/well of diluted test articles to the plates [0354] 9) Cover with sealing film and place the plates onto a plate shaker set to 50 rpm for 60 minutes at room temperature. […] 10) Decant plates and tap out residual liquid on a stack of paper towels. [0356] 11) Wash wells three times by dispensing 200 μL of pH 6.0 or pH 7.4 ELISA wash buffer to the wells and completely aspirate the contents. [0357] 12) Dilute the HRP secondary antibody at 1:2500 in pH 6.0 or pH 7.4 ELISA incubation buffer. [0358] 13) Add 100 μL HRP secondary antibody diluted in pH 6.0 or pH 7.4 ELISA incubation buffer to each well [0359] 14) Cover with sealing film and place the plates onto a plate shaker set to 50 rpm for 60 minutes at room temperature. [0360] 15) Decant plates and tap out residual liquid on a stack of paper towels. [0361] 16) Wash wells three times by dispensing 200 μL of pH 6.0 or pH 7.4 ELISA wash buffer to the wells and completely aspirate the contents. [0362] 17) Dispense 50 μL per well of the TMB substrate solution into all wells of the plates. Incubate at room temperature for about 2 minutes 15 seconds or 2 minutes. […] 18) Add 50 μL per well of 1N HCl into all wells of the plates. Read plates at 450 nm using PerkinElmer, EnSpire 2300 Multilabel Reader.

cynoCD46-His [5] = biological target: T3, cynoCD46-His; test: SPR, cynoCD46-His immobilised, antibody as analyte, pH 7.4
Description: as §1, §2, §3

[6] = biological target: T4, cyno CD46 expressed on 293 cells; test: FACS, 293 cells expressing cyno CD46, pH 7.4
Description: as §4

cynoCD46-His [7] = biological target: T3, cynoCD46-His; test: SPR, cynoCD46-His immobilised, antibody as analyte, pH 6.5
Description: as §1, §2, §3

[8] = biological target: T4, cyno CD46 expressed on 293 cells; test: FACS, 293 cells expressing cyno CD46, pH 6.0
Description: as §4

huCD46-His [9] = biological target: T1, huCD46-His; test: SPR, huCD46-His immobilised, antibody as analyte, pH 7.4
Description: as §1, §2, §3

cynoCD46-His [10] = biological target: T3, cynoCD46-His; test: SPR, cynoCD46-His immobilised, antibody as analyte, pH 6.0
Description: as §1, §2, §3

Kd (huCD46-His [1]) [nM]	koff (huCD46-His [1]) [s⁻¹]	kon (huCD46-His [1]) [M⁻¹ s⁻¹]	Kd (huCD46-His [2]) [nM]	koff (huCD46-His [2]) [s⁻¹]	kon (huCD46-His [2]) [M⁻¹ s⁻¹]	Ratio (pH 7.4/6.0) [3]	ratio (ph 7.4/pH 6.0) [4]	Kd (cynoCD46-His [5]) [nM]	koff (cynoCD46-His [5]) [s⁻¹]	kon (cynoCD46-His [5]) [M⁻¹ s⁻¹]	EC50 [6] [µg/mL]	Kd (cynoCD46-His [7]) [nM]	koff (cynoCD46-His [7]) [s⁻¹]	kon (cynoCD46-His [7]) [M⁻¹ s⁻¹]	EC50 [8] [µg/mL]	Kd (huCD46-His [9]) [nM]	koff (huCD46-His [9]) [s⁻¹]	kon (huCD46-His [9]) [M⁻¹ s⁻¹]	Kd (cynoCD46-His [10]) [nM]	Binder	also measured
2.32	0.00158	682000	2.15	0.00133	621000	1.5	1.33	0.905	0.0011	1.21e+06	0.0493	0.778	0.00117	1.51e+06	0.0336	2.13	0.00119	555000	0.795	Benchmark (BM) BA-133-00-01 (antibody, V domains shown, the killing assays used the ADC form; Conjugation site and payload are not described; also called BM (bench mark)) VH: QVQLQESGPGLVKPSETLSLTCTVSGGSVSSYDISWIRQPPGKGLEWIGVIWTDGGTNYNSAFMSRVTISVDTSKNQFSLKLSSVTAADTAVYYCARVYDGYPWFAYWGQGTLVTVSS VL: DIQMTQSPSSLSASVGDRVTITCRASQGISNYLNWYQQKPGKAPKLLIYYTSSLHSGVPSRFSGSGSGTDFTLTISSLQPEDFATYYCQQYIKLPWTFGGGTKLEIKR	koff (cynoCD46-His [10]): 0.00115 s⁻¹; kon (cynoCD46-His [10]): 1.45e+06 M⁻¹ s⁻¹
2.36	0.000915	388000	1.29	0.000736	571000	11	11	5.47	0.00242	442000	1.15	2.33	0.00198	849000	0.104	0.89	0.000778	874000	2.55	BAP133-2-03-03-SL (antibody, V domains shown, the killing assays used the ADC form; also called BAP133-02-03-03-SL; CPE hit BAP133-2-03-03-SL) VH: EVQLVESGGGLVQPGGSLRLSCAASGGSVSSYDISWIRQSPSRGLEWLGVIWTDGGTNYNSAFMSRFTISRDDSKNTAYLQMNSLKTEDTAVYYCERVYDGYPWFAYWGQGTLVTVSS VL: AIQLTQSPSSLSASVGDRVTITCRASQGISNYLNWYLQKPGQSPQLLIYYTSSLHSGVPDRFSGSGSGTDFTLKISRVEAEDVGVYYCQQYIKLPWTFGQGTKVEIK	koff (cynoCD46-His [10]): 0.00255 s⁻¹; kon (cynoCD46-His [10]): 1e+06 M⁻¹ s⁻¹
1.52	0.00179	1.18e+06	2.07	0.00195	941000	8	7.14	1.26	0.00153	1.21e+06	0.33	0.624	0.00142	2.28e+06	0.0411	4.8	0.00249	519000	0.514	BA-133-04-03 (antibody, V domains shown, also called CPE hit BA133-04-03) VH: EVQLVESGGGLVQPGGSLRLSCAASGGSVSSYDISWIRQSPSRGLEWLGVIWTDGGTNYNSAFMSRFTISRDDSKNTAYLQMNSLKTEDTAVYYCERVYDGYPWFAYWGQGTLVTVSS VL: AIQLTQSPSSLSASVGDRVTITCRASQGISNYLNWYLQKPGQSPQLLIYYTSSLFSGVPDRFSGSGSGTDFTLKISRVEAEDVGVYYCQQYIKLPWTFGQGTKVEIK	koff (cynoCD46-His [10]): 0.00143 s⁻¹; kon (cynoCD46-His [10]): 2.79e+06 M⁻¹ s⁻¹
2.33	0.00143	611000	2.31	0.00127	547000	10.4	9	1.06	0.000904	852000	1.37	0.683	0.000943	1.38e+06	0.132	4.17	0.00174	417000	0.519	BA-133-04-02 (antibody, V domains shown, also called CPE hit BA133-04-02) VH: EVQLVESGGGLVQPGGSLRLSCAASGGSVSSYDISWIRQSPSRGLEWLGVIWTDGGTNYNSAFMSRFTISRDDSKNTAYLQMNSLKTEDTAVYYCERVYDGYPWFAYWGQGTLVTVSS VL: AIQLTQSPSSLSASVGDRVTITCRASQGIANYLNWYLQKPGQSPQLLIYYTSSLHSGVPDRFSGSGSGTDFTLKISRVEAEDVGVYYCQQYIKLPWTFGQGTKVEIK	koff (cynoCD46-His [10]): 0.000835 s⁻¹; kon (cynoCD46-His [10]): 1.61e+06 M⁻¹ s⁻¹
0.991	0.00113	1.14e+06	1.77	0.00123	696000	8.4	9.2	1.29	0.000893	690000	0.958	0.558	0.000662	1.19e+06	0.114	3.99	0.00154	385000	0.465	BA-133-04-01 (antibody, V domains shown, also called CPE hit BA133-04-01) VH: EVQLVESGGGLVQPGGSLRLSCAASGGSVSSYDISWIRQSPSRGLEWLGVIWTDGGTNYNSAFMSRFTISRDDSKNTAYLQMNSLKTEDTAVYYCERVYDGYPWFAYWGQGTLVTVSS VL: AIQLTQSPSSLSASVGDRVTITCRASQWISNYLNWYLQKPGQSPQLLIYYTSSLHSGVPDRFSGSGSGTDFTLKISRVEAEDVGVYYCQQYIKLPWTFGQGTKVEIK	koff (cynoCD46-His [10]): 0.000757 s⁻¹; kon (cynoCD46-His [10]): 1.63e+06 M⁻¹ s⁻¹
